T1: cynomolgus IL-17F homodimer, His-tagged (cynomolgus, UniProt G7P4V0 31-163)
T1 sequence: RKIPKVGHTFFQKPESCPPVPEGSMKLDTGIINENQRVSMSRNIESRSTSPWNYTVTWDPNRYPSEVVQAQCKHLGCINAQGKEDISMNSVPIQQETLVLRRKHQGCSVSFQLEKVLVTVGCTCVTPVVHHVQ

T2: human IL-17F homodimer (human, UniProt Q96PD4 31-163)
T2 sequence (looked up): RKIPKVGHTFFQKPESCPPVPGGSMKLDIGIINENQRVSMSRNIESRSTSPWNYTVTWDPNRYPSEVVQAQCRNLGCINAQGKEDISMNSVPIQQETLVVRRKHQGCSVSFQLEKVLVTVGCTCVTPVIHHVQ


Assays:
[1] = target: T1, cynomolgus IL-17F homodimer, His-tagged; assay: cell-based or functional assay
human IL-17F homodimer = target: T2, human IL-17F homodimer; assay: cell-based or functional assay

Row | Binder | IC50 (nM), IL-6 secretion by MEF cells stimulated with IL-17F (5 ng/ml) and mTNF-α [1] [nM] | IC50 (nM), IL-6 secretion by MEF cells stimulated with IL-17F (5 ng/ml) and mTNF-α (human IL-17F homodimer) [nM]
1 | 41B10 antibody (antibody, V domains shown) VH: not shown VL: DIQMTQSPSSLSASVGDRVTITCRASQGISSWLAWYQQKPEKAPKSLIYAASSLQSGVPSRFSGSGSGTDFTLTISSLQPEDFATYYCQQYNSYPITFGQGTRLEIK | 18 | 
2 | 1F1 antibody (antibody, V domains shown) VH: EVQLLESGGGLVQPGGSLRLSCAASGFTFSSYVMSWVRQVPGKGLEWVSAISGRGGNTFYADSVKGRFTISRDNSKNTLYLQMDSLRAEDTAVYYCAKDDRRIAAGSFDYWGQGTTVTVSS VL: AIQLTQSPSSLSASVGDRVTITCRASQGISSALAWYQQKPGKAPKLLIYDVSSLESGVPSRFSGSGSGTDFTLTISSLQPEDFATYYCQQFNSYPLTFGGGTKVEIK | 11 | 1.1
3 | 28B11 antibody (antibody, V domains shown) VH: QVQLVESGGGLVKPGGSLRLSCAASGFTFSNYYMTWIRQAPGKGLEWISYISSTGGNIYYADSVKGRFTISRDNAQNSLYLQMNSLRAEDTAVYYCARDGGVIISTAMFDYWGQGTTVTVSS VL: AIQLTQSPSSLSASVGDRVTITCRASQGISSALAWYQQKPGKAPKLLIYDASSLESGVPSRLSGSGSGTDFTLTISSLQPEDFATYYCQQFNSYPLTFGGGTKVEIK | 6.3 | 1.2
4 | 11C5 antibody (antibody, V domains shown) VH: QVQLVQSGAEVKKPGASVKVSCKASGYTFTIYYLHWVRQAPGQGLEWMGIINPSGGRTNYAQKFQGRVTMTRDPSTNTVYMELSSLTSEDAAVYYCARGEFSSGWLDYWGQGTTVTVSS VL: DIQMTQSPSSVSASVGDRVTITCRASQGISSWLAWYQHKPGKAPKLLIYAASSLQSGVPSRFSGSGSGTDFTLTISSLQPEDFATYYCQQANSFPLTFGGGTKVEIK | 2.9 | 0.4
5 | 5D3 antibody (antibody, V domains shown) VH: EVQLVESGGGLVQPGRSLRLSCAASGFTFDDYAMHWVRQAPGKGLEWVSGISWNSGSRGYADSVKGRFTISRDNAKNSLYLQMNSLRAEDTALYYCAKDMVYALDVWGQGTTVTVSS VL: EIVLTQSPGTLSLSPGERATLSCRASQSFSGSYLAWYQQKPGQAPRLLIYDTSSRATGIPDRFSGSGSGTDFTLTISRLEPEDFAVYYCQQYGTWTFGQGTKVEIK | 12 | 0.5
6 | 5E12 antibody (antibody, V domains shown) VH: QVQLVQSGGGLVQPGRSLRLSCAASGFTFDDYAMHWVRQAPGKGLEWVSGISWNSGTIGYADSVKGRFTISRDNAKNSLYLQMNSLRAEDTALYYCAKELYISDWDSYSYGMDVWGQGTTVTVSS VL: not shown | 22 | 
7 | 43G6 antibody (antibody, V domains shown) VH: EVQLVESGGGLVQPGGSLRLSCAASGFTFSSYSMNWVRQAPGKGLEWVSYISSGSSTIYYADSVKGRFTISRDNAKNSLYLQMNSLRDEDTAVYYCAREGYVSGTYYNYYYGMDVWGQGTTVTVSS VL: EIVLTQSPATLSLSPGERATLSCRASQSVSSYLAWYQQKPGQAPRLLIYDAPNRATGIPARFSGSGSGTDFTLTISSLEPEDFAVYYCQQRSNWSLTFGGGTKVEIK | 8.4 | 1.1
8 | 22F8 antibody (antibody, V domains shown) VH: EVQLLESGGGLVQPGGSLRLSCAASGFTFSSYAMNWVRQAPGKGLEWVSTISGRGGSIYYADSVKGRFTISRDNSKNTLYLQMNSLRAEDTAVYYCAKEEATWDFDYWGQGTTVTVSS VL: EIVLTQSPATLSLSPGERATLSCRASQSVSSFLAWFQQKPGQAPRLLIYDASNRATGIPARFSGSGSGTDFTLTISSLEPEDFAVYYCQQRSNWPPTFGQGTKVEIK | 10 | 2
9 | 2E12 antibody (antibody, V domains shown) VH: EVQLVESGGGLVQRGGSLRLSCAASGFTFSSYSMNWVRQAPGKGLEWISYISSSSSAIYYADSVKGRFTISRDNAKNSLYLQMNSLRDEDTAVYYCAREGYASGRYYNYYYGMDVWGQGTTVTVSS VL: EIVLTQSPATLSLSPGERATLSCRASQSVSSYLAWYQQKPGQAPRLLIYDASNRATGIPARFSVSGSGTDFTLTISSLEPEDFAVYYCQQRSSWSLTFGGGTKVEIK | 26 | 5.9
10 | 21B10 antibody (antibody, V domains shown) VH: EVQLVESGGGLVQPGGSLRLSCAASGFTFSSYSMNWVRQAPGKGLEWVSYISGGSSTIYYADSVKGRFTISRDNAKNSLYLQMNSLRDEDTAVYYCAREGYVSGTYYNYYYGMDVWGQGTTVTVSS VL: EIVLTQSPATLSLSPGERATLSCRASQSVSSYLAWYQQKPGQAPRLLIYDAPNRATGIPARFSGSGSGTDFTLTISSLEPEDFAVYYCQQRSNWSLTFGGGTKVEIK | 8.7 | 2

From patent US20150132314A1 (NOVIMMUNE S A, published 2015)
